Assays:
xenograft A431 = assay: immunohistochemical analysis on xenograft tumors; type: binding, human
Description: The murine fibroblast line NR6ΔEGFR was used as immunogen. Mouse hybridomas were generated by immunizing BALB/c mice five times subcutaneously at 2- to 3-week intervals, with 5×10^5-2×10^6 cells in adjuvant. Complete Freund's adjuvant was used for the first injection. Thereafter, incomplete Freund's adjuvant (Difco™, Voigt Global Distribution, Lawrence, Kans.) was used. Spleen cells from immunized mice were fused with mouse myeloma cell line SP2/0 (Shulman et al. (1978) Nature 276:269-270). Supernatants of newly generated clones were screened in hemadsorption assays for reactivity with cell line NR6, NR6wtEGFR, and NR6ΔEGFR and then analyzed by hemadsorption assays with human glioblastoma cell lines U87MG, U87MGwtEGFR, and U87ΔEGFR. Selected hybridoma supernatants were subsequently tested by western blotting and further analyzed by immunohistochemistry. Newly generated mAbs showing the expected reactivity pattern were purified.
Bound antibody was detected using the Dako Envision+ HRP detection system as per manufacturer's instructions. Sections were finally rinsed with water, counterstained with hematoxylin and mounted.

xenograft U87MGΔEGFR = assay: immunohistochemical analysis on xenograft tumors; type: binding, human
[1] = biological target: T1, denatured soluble domain of the EGFR (sEGFR) (Homo sapiens, UniProt P00533); assay: competition ELISA with biotinylated mAb806; type: binding; details: after unlabeled blocking antibody
T1 construct: sEGFR is the recombinant extracellular domain (amino acids 1-621) of the wild-type EGFR); host or cells: CHO cells
Protocol: Briefly, the denatured soluble domain of the EGFR (sEGFR) was coated on to ELISA plates. The unlabeled 124 or 1133 antibodies were then added across the plate in increasing concentrations.

A431 xenografts = assay: s.c. xenograft therapy study; type: in vivo, nude mice; details: established; 6×1 mg IP
Protocol: Tumor cells (3×10^6) in […] of PBS were inoculated subcutaneously into both flanks of 4-6 week old female nude mice (Animal Research Centre, Western Australia, Australia). […] Treatment was continued for a total of 6 doses, 3 times per week for 2 weeks. In the established model, treatment was started when tumors had reached a mean volume of 65±6.42 mm^3 (U87MG.Δ2-7), 84±9.07 mm3 (U87MG), 73±7.5 mm^3 (U87MG.wtEGFR) or 201±19.09 mm^3 (A431 tumors). Tumor volume in mm^3 was determined using the formula […], where length was the longest axis and width the measurement at right angles to the length (Clark et al. (2000) Therapeutic efficacy of anti-Lewis (y) humanized 3S 193 radioimmunotherapy in a breast cancer model: enhanced activity when combined with Taxol chemotherapy. Clin. Cancer Res. 6, 3621-3628). Data was expressed as mean tumor volume±S.E. for each treatment group. Statistical analysis was performed at given time points using Student's t-test. Animals were euthanized when the xenografts reached an approximate volume of 1.5 cm^3 and the tumors excised for histological examination. This research project was approved by the Animal Ethics Committee of the Austin and Repatriation Medical Centre.
AG1478 (4-(3-Chloroanilino)-6,7-dimethoxyquinazoline) is a potent and selective inhibitor of the EGFR kinase versus HER2-neu and platelet-derived growth factor receptor kinase (Calbiochem Cat. No. 658552). […] The results are illustrated in FIG. 12. […] 400 μg AG1478 was administered at 0, 2, 4, 7, 9, and 11 days post xenograft.
With respect to “(iv),” different groups of mice received either 0.5 mg/injection of each mAb, or 0.25 mg/injection of each mAb.
Finally, the fourth group of mice, which had been inoculated with A431 cells, received injections as in groups I and III, at 8, 10, 12 and 14 days after inoculation. At the start, the average tumor size was 71 mm^3.
To establish xenografts, mice were injected subcutaneously into the right and left inguinal mammary line with 1×10^6 A431 adenocarcinoma cells or 1×10^6 U87MG.de2-7 glioma cells in 100 μl of PBS. Tumor volume (TV) was calculated by the formula […] where length was the longest axis and width the measurement at right angles to length. […] Therapy was administered on days 6, 8, 11, 13, 15 and 18 for A431, and days 4, 6, 8, 11, 13 and 15 for the U87MG.de2-7 cell lines respectively. Mean±SEM tumor volumes until termination of the experiments due to ethical considerations of tumor burden are presented in FIG. 91 for the A431 xenograft until day 25, and in FIG. 92 for U87MG.de2-7 xenografts until day 31.

A431 cells = assay: ADCC assay; type: cell-based, human; details: 1 μg/mL; representative experiment

| Binding of biotin-labeled 806 [1] | Molecule | Immunohistochemical staining (xenograft A431) | Immunohistochemical staining (xenograft U87MGΔEGFR) | xenograft growth versus PBS vehicle control (A431 xenografts) | ADCC cytotoxicity (A431 cells) [%] |
| --- | --- | --- | --- | --- | --- |
| None | mAb1133: murine IgG2a monoclonal antibody, clone 1133; VH SEQ ID NO:32, VL SEQ ID NO:37 (antibody, listed as Mus musculus, V domains shown) VH: DVQLQGSGPSLVKPSQSLSLTCTVTGYSITSDYAWNWIRQFPGNKLEWMGYISYSGNTRYNPSLRSRISITRDTSKNQFFLQLNSVTTEDTATYYCATAGRGFPYWGQGTLVTVSA VL: DILMTQSPSSMSVSLGDTVNITCHSSQDINSNIGWLQQKPGKSFKGLIYHGTNLDDGVPSRFSGSGSGADYSLTISSLESEDFADYYCVQYGQFPWTFGGGTKLEIKR | pos. (predominantly basal | pos. |  |  |
|  | hu806: humanized (veneered) 806 antibody, human IgG1; SEQ ID NO:42 and SEQ ID NO:47 (antibody, V domains shown) VH: MDWTWRILFLVAAATGVHSQVQLQESGPGLVKPSQTLSLTCTVSGYSISSDFAWNWIRQPPGKGLEWMGYISYSGNTRYQPSLKSRITISRDTSKNQFFLKLNSVTAADTATYYCVTAGRGFPYWGQGTLVTVSS VL: MDWTWRILFLVAAATGVHSDIQMTQSPSSMSVSVGDRVTITCHSSQDINSNIGWLQQKPGKSFKGLIYHGTNLDDGVPSRFSGSGSGTDYTLTISSLQPEDFATYYCVQYAQFPWTFGGGTKLEIKR |  |  | marked reduction in A431 xenograft growth | 30 |
